Test results: publication PMC8420766, “Crystal structure of a MarR family protein from the psychrophilic bacterium Paenisporosarcina sp. TG-14 in complex with a lipid-like molecule” (IUCrJ, 2021)
Each block holds one molecule with its values, some of them ahead of it.

Tests used:
PaMarR [1] = target: T1, PaMarR (Paenisporosarcina sp. TG-14, UniProt A0A8J9SKQ8); assay: X-ray crystal structure; type: binding; settings: 1.6 A; co-purified from expression culture, not added; identity assigned from electron density; deep cavity in dimerization domain (helices a1, a6, a7), putative effector site; ammonium citrate pH 7.0
T1 construct: gene E2636_00495; N-terminal His6 tag (pET-28a(+), NdeI/XhoI) removed with thrombin; E. coli BL21(DE3); gene primer start TTGGATAAGAGAATAC (N-terminus M/L-DKRI)

[2] = target: MarR protein from Paenisporosarcina sp. TG-14 (Paenisporosarcina sp. TG-14); assay: AUC; analytical ultracentrifugation at 40 000 rev/min, 20°C, detection at 280 nm, analysed with SEDFIT; one peak at a sedimentation coefficient of about 2.5 (31.3 kDa)
PaMarR [3] = target: T2, PaMarR (Paenisporosarcina sp. TG-14, UniProt A0A8J9SKQ8 1-147); assay: EMSA; 0.3-2.1 uM PaMarR, 0.5 uM duplex; B1 (one site) at low, B2 (both sites) at high protein; protein contains palmitate; EMSA: Dulbecco's PBS, 12% (v/v) glycerol, 0.5 uM duplex, 15 min at 37 C, 20 ul; 8% native PAGE with 5% glycerol in Tris-borate; pH not stated; settings: protein: recombinant; tags: N-terminal His6 (pET-28a NdeI/XhoI), removed with thrombin; chain copies: 2; label: none (GelRed stain); as printed: 52 bp duplex, 3' overhang 13 nt on strand 1 (second strand may be printed incompletely; Methods say complementary oligos)
T2 sequence: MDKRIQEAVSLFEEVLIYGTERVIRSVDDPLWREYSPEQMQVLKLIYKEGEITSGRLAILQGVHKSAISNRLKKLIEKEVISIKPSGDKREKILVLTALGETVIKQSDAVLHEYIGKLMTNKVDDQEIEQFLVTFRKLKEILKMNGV

Molecule: CCCCCCCCCCCCCCCC(=O)O [palmitic acid]
- X-ray crystal structure (PaMarR [1]): a model of palmitic acid containing a 16-carbon chain was built, which had the best fit

- stoichiometry N [2]: 2
Molecule: MarR protein from Paenisporosarcina sp. TG-14 (natural protein)

B1: Palindrome probe (putative binding sites 1 and 2) (dsDNA)
DNA 1: TTTTAATAGTTCACCCCCTAAACTAACGTTATTGGTTTAGGGGGTGAACTATTATGCCCCCCATA
DNA 2: ATAGTTCACCCCCTAAACCAATAACGTTAGTTTAGGGGGTGAACTATTAAAA
- binding result (PaMarR [3]): binds
